Assay: yeast display, Sf9 membrane polyspecificity reagent, FACS + sequencing; frameworks hold sequencing errors
Summary of the method: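 Genes from sorted yeast were amplified by colony PCR, read by MiSeq 2 × 250 sequencing and filtered on CDR length. These cells carried a synthetic nanobody library in Saccharomyces cerevisiae BJ5465 and were sorted by FACS into low and high (top ~1%) gates on anti-HA and streptavidin fluorescence. Polyreactivity is labelled according to the gate of origin.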

| Sequence | polyreactivity (PSR sort gate) |
| --- | --- |
| QVQLVESGGGLVQAGGSLRLSCAASGSTFPYYGMGWYRQAPGKERDLVAVISRRGTGTYYADSVKGRFTISRDNAKNTVYLQMNSLKPEDTAVYYCNTDTHGPGPTFDHYDYWGQGTQVTVSS | low polyreactivity |
| QVQLVESGGGLVQAGGSLRLSCAASGSTFPYYVMGWYRQAPGKERELVAAISKSGGSTYYADSVKGRFTISRDNEKNTVYLQMNSLKPEDTAVYYCAKSYRSSRRYNYWGQDTQVTVSS | high polyreactivity |
| QVQLVESGGGLVQAGGSLRLSCAASGSTFQANTMGWYRQAPGKERELVAAISIRGANTYYADSVKGRFTISRDNAKNTVYLQMNSLKPEDTAVYYCATRVRKYSLRLDYWGQGTQVTVSS | high polyreactivity |
| QVQLVESGGGLVQAGGSLRLSCAASGSTFQFYAMGWSRQAPGKERELVATISSGDSTNYADSVKGRFTISRDNAKNTVYLQMNSLKPEDTAVYYCAADFWGQYQGLDGGDYWGQGTQVTVSS | low polyreactivity |
| QVQLVESGGGLVQAGGSLRLSCAASGSTFQFYAMGWYRHAPGKERELVAAIDGSDGDTYYADSVKGRFTISRDNAKNTVYLQMNSLKPEDTAVYYCNADRDALVGYDYDYWGQGTQVTVSS | low polyreactivity |
| QVQLVESGGGLVQAGGSLRLSCAASGSTFQFYAMGWYRQAPGKEREFVAAITTRSGSTYYADSVKGRFTISRDNAKNTVYLQMNSLKPEDTAVYYCAAYIYGHSSDSVRYEYWGQGTQVTVSS | low polyreactivity |
| QVQLVESGGGLVQAGGSLRLSCAASGSTFQGYAMGWYRQAPGNERELVAAISRRGGSTYYADSVKGRFTISRDNAKNTVYFQKNSLKPEDTAVYYCNAVVRTIVLYYWGQGTQVTVSS | high polyreactivity |
| QVQLVESGGGLVQAGGSLRLSCAASGSTFQLYAMGWYRQAPGKERELVAAISGIGDSTYYADSVKGRFTISRDNAKNTVYLQMNSLKPEDTAVYYCAREFSDGLSGKFDYWGQGTQVTVSS | low polyreactivity |
| QVQLVESGGGLVQAGGSLRLSCAASGSTFQPYAMGWYRQAPGKEREFVATISGSAGSTYYADSVKGRFKISRDNAKNTVYLLMNSLKPEDTAVYYCNADSGWFGYDYWGQGTQVTVSS | low polyreactivity |
| QVQLVESGGGLVQAGGSLRLSCAASGSTFQPYTMGWYRQAPGTERELVAAITGRGGSTYYADSVKGRFTISRDNAKNTVYLQMNSLKPEDTAVYYCAAGAYRRNKSDYYYWGQGTQVTVSS | low polyreactivity |
| QVQLVESGGGLVQAGGSLRLSCAASGSTFQRYAMGWYRQAPGKERELVAAITSGGSTYYADSVKGRFTISRDNAKNTVYLQMNSQKPEDTAVYYCNAAWFYRYGYWGQGTQVTVSS | high polyreactivity |
| QVQLVESGGGLVQAGGSLRLSCAASGSTFQSNAMGWYRQAPGKERELVAAISSSAGTTFYADSVKGRFTISRDNAKNTVYLQMNSLKPEDTAVYYCAKKDFYFAPSPGYYRSRDYWGQGTQVTVSS | low polyreactivity |
| QVQLVESGGGLVQAGGSLRLSCAASGSTFQSYAMGWYRQAPGKERELVAAISFSGGSTYYADSVKGRFTNSRDNSKNTVYLQMNSLIPEDTAVYYCAKRGWVYFHGYDYWGQGTQVTVSS | low polyreactivity |
| QVQLVESGGGLVQAGGSLRLSCAASGSTFQSYAMGWYRQAPGKERELVAGITSGDSTNYADSVKGRFTISRDNAKNTVYLQMNSLKPEDTAVYYCNAVTQARYYYWGQGTQVTVSS | low polyreactivity |
| QVQLVESGGGLVQAGGSLRLSCAASGSTFQTYAMGWYRQAPGKERELVAAISFNGGSTYYADSVKGRFTISRDNAKNTVYLQMNSLKPEDTAVYYCAVEYTWASALYDGRHDYWGQGTQVTVSS | high polyreactivity |
| QVQLVESGGGLVQAGGSLRLSCAASGSTFQTYAMGWYRQAPGKERELVAAISRRSGSTYYADSVKGRFTISRDNAKNTVYLQMNSLKPEDTAVYYCAARYVSRRFLGYYYWGQGTQVTVSS | high polyreactivity |
| QVQLVESGGGLVQAGGSLRLSCAASGSTFQTYVMGWYRQAPGKERELVAAISSGGSTNYADSVKGRFTISRDNAKNTVYLQMNSLKPEDTAVYYCAKRWPYFRRGKDGYWGQGTQVTVSS | low polyreactivity |
| QVQLVESGGGLVQAGGSLRLSCAASGSTFQVYGMGWYRQAPGKERELVAAISRSGGRTYYADSVKGRFTISRDNAKNTVYLQMNSLKPEDTAVYYCAKTYQTTTSKSGYYYWGQGTQVTVSS | high polyreactivity |
| QVQLVESGGGLVQAGGSLRLSCAASGSTFQWYAIGWYRQAPGKERELVATISYTGGSRTYYADSVKGRFTISRDNAKNTVYLQMNILKPEDTAVYYCAAESNQLFYFRRFDYWGQGTQVTVSS | low polyreactivity |
| QVQLVESGGGLVQAGGSLRLSCAASGSTFQYNAMGWYRQAPGKERELVATITWSGGSTYYADSVKGRFTISRDNAKNTVYLQMNSLKPEDTAVYYCAADYYYGYEFGYWGQGTKVTVSS | low polyreactivity |
| QVQLVESGGGLVQAGGSLRLSCAASGSTFQYNVMGWYRQAPGKERELVATISYSSGRTYYADSVKGRFTISRDNAKNTVYLQMNSLKPEDTAVYYCAAAVRLYFWTSAYKYGYWGQGTQVTVSS | high polyreactivity |
| QVQLVESGGGLVQAGGSLRLSCAASGSTFQYYAMGWYRPAPGKERELVAAISSGGSTYYADSVMGRFTISRDNAKNTVYLQMNSLKPEDNAVYYCAAYDYDGVYGYCGQGTQVTVSS | high polyreactivity |

| Sequence | polyreactivity (PSR sort gate) |
| --- | --- |
| QVQLVESGGGLVQAGGSLRLSCAASGSTFQYYAMGWYRQAPGKEREFVAAIHWDGGRTYYADSVKGRFTISRDNAKNTVYLQMNSLKPEDTAVYYCAAYTRYKMDYWGQGTQVTVSS | high polyreactivity |
| QVQLVESGGGLVQAGGSLRLSCAASGSTFQYYAMGWYRQAPGKERELFAVITGAGGTNYADSVKGRFTISRDNAKNTVYLQMNSLKPEDTAVYYCAARSPGTRWGDYDYWGQGTQVTVSS | low polyreactivity |
| QVQLVESGGGLVQAGGSLRLSCAASGSTFQYYAMGWYRQAPGKERELVAAISAGGTRTYYADSVKGRFTISRDNAKNTVYLQMNSLKPEDPAVYYCNADDLHFVARYDYWGQGTQVTVSS | low polyreactivity |
| QVQLVESGGGLVQAGGSLRLSCAASGSTFQYYAMGWYRQAPGKERELVAAISYRGSTYYADSVKGRFTISRDNAKNTVYLQMNSLKPEDTAVYYCAAVNRPWYSFGYGYWGQGTQVTVSS | high polyreactivity |
| QVQLVESGGGLVQAGGSLRLSCAASGSTFQYYAMGWYRQAPGKERELVASITWGGDNTDYADSVKGRFTISRDNAKNTVYLQMNSLKPEDTAVYYCNTVRSNKMDYWGQGTQVTVSS | high polyreactivity |
| QVQLVESGGGLVQAGGSLRLSCAASGSTFQYYDMGWYRQAPGKERELVASITGSGDSTYYADSVKGRFTISRDNAKNTVYLQMNSLKPEDTAVYYCAAQNTWSGDYDYWGQGTQVTVSS | low polyreactivity |
| QVQLVESGGGLVQAGGSLRLSCAASGSTFRDNAMGWYRQAPGKERELVAAISRSGARTYYADSVKGRFTISRDNAKNTVYLQMNSLKPEDTAVYYCNAVWRVKYRRGLDYWGQGTQVTVSS | high polyreactivity |
| QVQLVESGGGLVQAGGSLRLSCAASGSTFRDYAMGWYRQAPGKERELVAAISNSGGRTYYADSVKGRFTISRDNAKNTVYLQMNSLKPEDTAVYYCNAGRQTKWGQGTQVTVSS | high polyreactivity |
| QVQLVESGGGLVQAGGSLRLSCAASGSTFRDYAMGWYRQAPGKERELVAAITQNGGSTYYADSVKGRFTISRDNAKNSVYLQMNSLKPEDTAVYDCAADSDWFVWQEDYWGQGTQVTVSS | low polyreactivity |
| QVQLVESGGGLVQAGGSLRLSCAASGSTFREYTMGWYRQAPGKERELVAAITNSGGSTYYADSVKGRFTISRDNAKNTVYLQLNSLKPEDTAVYYCAAEVGIVDYDYWGQGTQVTVSS | low polyreactivity |
| QVQLVESGGGLVQAGGSLRLSCAASGSTFRFYAMGWYRQAPGKERELVAAITWRSGRTSYADSVKGRFTISRDNAKNTVYLQMNSLKPDDTAVYYCAATSVYRYDYWGQGTLVTVSS | high polyreactivity |
| QVQLVESGGGLVQAGGSLRLSCAASGSTFRFYAMGWYRQAPGKERELVAGITGSGDSTYYADSVKGRFTISRDNAKNTVYLQMNSLKPEDTAVYYCNKRVVYRSSQFDYWGQGTQVTVSS | low polyreactivity |
| QVQLVESGGGLVQAGGSLRLSCAASGSTFRFYTMGWYRPAPGKERELVATISRGGSTYADSVKGRFTISRDNAKNTVYLQMYSLKPEDTAVYYCAKRGYSSWPYDYWGQGTQVSVSS | low polyreactivity |
| QVQLVESGGGLVQAGGSLRLSCAASGSTFRGFAMGWYRQAPGKERELVAAISSRGASTHYADSVKGRFTISRDNANNTVYLQLTSLKPEDTAVYYCNKRQVFVSTGVYEFDYWGQGTQVTVSS | low polyreactivity |
| QVQLVESGGGLVQAGGSLRLSCAASGSTFRGNAMGWYRQAPGKERELVAAITGRGGRTYYADSVKGRFTISRDNAKNTVYLQMNSLKPEDTAVYYCAAYSRYKPYGITAYDYWGQGTQVTVSS | high polyreactivity |
| QVQLVESGGGLVQAGGSLRLSCAASGSTFRGNAMGWYRQAPGKERELVASITGGGSTNYADSVKGRFTISRDNAKNTVYLQMNSLKPEDTAVYYCAADWGADFYGGQGTQVTVSS | low polyreactivity |
| QVQLVESGGGLVQAGGSLRLSCAASGSTFRGYAMGWYRQAPGKERELVAAITRGGSTYYADSVKGRFTISRDNAKNTVYLQMNSLKPEDTAVYYFYDYWGQGTQVTVSS | low polyreactivity |
| QVQLVESGGGLVQAGGSLRLSCAASGSTFRGYAMGWYRQAPGKERELVAAITRSGGSTYYADSVKGRFTISRDNAKNTVYLQMNSLKPEDTAVYYCNDRAFPYYRRFDYWGQGTQVTVSS | high polyreactivity |
| QVQLVESGGGLVQAGGSLRLSCAASGSTFRGYAMGWYRQAPGKERELVAAITYISDSTYYADSVKGRFTLSRDNAKNTVYLQMNSLKPEDTAVYYCNAYYDGDWRYTSQETGDHWGQGTQVTVSS | low polyreactivity |
| QVQLVESGGGLVQAGGSLRLSCAASGSTFRGYAMGWYRQAPGKERELVASISWNGTSTYYADSVKGRFTISRDNAKNTVYLQMNSLKPEDTAVYYCNVRFNYRGTYDYWGQGTQVTVSS | low polyreactivity |
| QVQLVESGGGLVQAGGSLRLSCAASGSTFRGYDMGWYRQAPGKERELVAAITTSGGTTYYADSVKGRFTISRDNAKNTVYLQMNSLKPEDTAVYYCAARYPRAGVPRRPTAYVRYGYWGQGTQVTVSS | high polyreactivity |

Reference: the nanobody polyreactivity screen of Harvey et al. (2022)
